Target: T1, human CD40 (Homo sapiens, UniProt P25942)
T1 construct: CD40 full-length cDNA was cloned by PCR; expressed in transfected cells
Assay: Binding to Cos-7 cells transiently transfected with human CD40 cDNA, fluorescence microscopy
Type: cell-based
Conditions: 250 nM biotinylated protein, 30 min at 0° C.
Description: Cell culture and fluorescence microscopy. The murine macrophage cell line ANA1 was kindly provided by H. Wagner (Munich, Germany). ANA-1 cells were cultured in VLE-RPMI 1640 (Biochrom), supplemented with 10% FCS, 2 mM L-glutamine and antibiotics. For fluorescence microscopy, ANA1 cells were either stimulated with LPS (20 μg/ml, Sigma, Germany), or kept in an LPS-free medium (mock treatment) for 7 h. After stimulation, cells were harvested and incubated with 100 nM biotinylated Hsp70, biotinylated GST, or Hsp70/peptide C-biotin complex for 30 min at 0° C. in VLE-RPMI 1640. After incubation cells were processed for staining with streptavidin-TRITC (Sigma, Germany), fixed with paraformaldehyde and analyzed by fluorescence microscopy (Axiovert 35, Zeiss) as described (Sondermann et al., 2000). […] Twenty-four h post-transfection cells were incubated with 250 nM biotinylated Hsp70, biotinylated GST or Hsp70/peptide C-biotin complex for 30 min at 0° C. in DMEM, fixed, stained with streptavidin-TRITC (Sigma, Germany), and analyzed by fluorescence microscopy as described (Sondermann et al., 2000, idem). […] Stably transfected cell lines were analyzed by immunoblotting for CD40 expression using an anti-CD40 antibody (CSA180, Stressgen). […]
Mock-treated and LPS-stimulated ANA-1 cells were analyzed for their expression of CD40. […]

T1 sequence (P25942 21-277): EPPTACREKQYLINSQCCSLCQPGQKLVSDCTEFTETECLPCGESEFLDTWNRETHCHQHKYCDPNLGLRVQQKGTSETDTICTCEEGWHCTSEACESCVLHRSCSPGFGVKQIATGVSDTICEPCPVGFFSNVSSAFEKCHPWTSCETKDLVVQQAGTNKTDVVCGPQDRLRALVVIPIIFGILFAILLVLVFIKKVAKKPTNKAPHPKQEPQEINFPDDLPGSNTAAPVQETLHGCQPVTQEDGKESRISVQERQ

**Q.** For “Hsp70: Recombinant human heat shock protein 70, expressed and purified as His-tagged protein”, which “binding to CD40-transfected Cos-7 cells” value is on record?
**A.** Its value is “bound to the surface of transfected cells but not to untransfected cells”.

— patent publication US20040071656A1, “Modulation of heat-shock-protein-based immunotherapies” (priority 2001, published 2004)
